Like-named read-outs stand apart in the source and are kept apart here.
Key:
[1] = Aggregation of conjugates by analytical size exclusion chromatography (SEC): % monomeric / % HMW; assay type: physicochemical
Protocol: (§1) Methods: Antibodies (15 mg/mL) bearing one or two aldehyde tags (single or double-tagged constructs) were conjugated to linker-payloads at 1.1 or 1.7 mM, respectively. Reactions proceeded for 72 h at 37° C. in 20 mM sodium citrate, 50 mM NaCl pH 5.5 (20/50 buffer) containing 0.85-2.5% DMA. […] After conjugation, free drug was removed using a 30 kD MWCO 0.5 mL Amicon spin concentrator. Samples were added to the spin concentrator, centrifuged at 15,000×g for 7 min, then diluted with 450 μL 20 mM sodium citrate, 50 mM NaCl pH 5.5 and centrifuged again. The process was repeated 10 times. To determine the DAR of the final product, ADCs were examined by analytical chromatography using HIC (Tosoh #14947) or PLRP-RP (Agilent PL1912-1802 1000 A, 8 um, 50×2.1 mm) columns. HIC analysis used mobile phase A: 1.5 M ammonium sulfate, 25 mM sodium phosphate pH 7.0, and mobile phase B: 25% isopropanol, 18.75 mM sodium phosphate pH 7.0. PLRP analysis used mobile phase A: 0.1% trifluoroacetic acid in water, and mobile phase B: 0.1% trifluoroacetic acid in acetonitrile. Prior to PLRP analysis, sample was denatured with the addition of 50 mM DTT, 4 M guanidine HCl (final concentrations) and heating at 37° C. for 30 min. To determine aggregation, samples were analyzed using analytical size exclusion chromatography (SEC; Tosoh #08541) with a mobile phase of 300 mM NaCl, 25 mM sodium phosphate pH 6.8 with 5% isopropanol.

[2] = assay type: physicochemical
Protocol: as §1

[3] = conjugated to antibody against Target 1
[4] = conjugated to antibody against Target 2
[5] = conjugated to antibody against Target 3
[6] = conjugated to antibody against Target 4
[7] = conjugated to antibody against Target 5
[8] = conjugated to antibody against Target 7
[9] = conjugated to antibody against Target 8
[10] = conjugated to antibody against Target 9
[11] = conjugated to antibody against Target 10

Row | SMILES | % HMW (high-molecular weight species) [1, 3] [%] | % HMW (high-molecular weight species) [1, 4] [%] | % HMW (high-molecular weight species) [1, 5] [%] | % HMW (high-molecular weight species) [1, 6] [%] | % HMW (high-molecular weight species) [1, 7] [%] | % HMW (high-molecular weight species) ([1]; conjugated to antibody against Target 6) [%] | % HMW (high-molecular weight species) [1, 8] [%] | % HMW (high-molecular weight species) [1, 9] [%] | % HMW (high-molecular weight species) [1, 10] [%] | % HMW (high-molecular weight species) [1, 11] [%] | DAR [2, 3] | DAR [2, 4] | DAR [2, 5] | DAR [2, 6] | DAR [2, 7] | DAR [2, 8] | DAR [2, 9] | DAR [2, 10] | DAR [2, 11]
1 | CC[C@@]1(O)C(=O)OCc2c1cc1n(c2=O)Cc2c-1nc1ccccc1c2CCN(C(=O)OCc1ccc(NC(=O)[C@H](C)NC(=O)[C@@H](NC(=O)CCC(=O)Nc2ccc3c(c2)cc(CN(C)NC)n3CCC(=O)N[C@H](C(=O)N[C@@H](C)C(=O)Nc2ccc(COC(=O)N(CCc3c4c(nc5ccccc35)-c3cc5c(c(=O)n3C4)COC(=O)[C@]5(O)CC)C(C)C)cc2O[C@@H]2O[C@H](C(=O)O)[C@@H](O)[C@H](O)[C@H]2O)C(C)C)C(C)C)c(O[C@@H]2O[C@H](C(=O)O)[C@@H](O)[C@H](O)[C@H]2O)c1)C(C)C [Compound 18] | 1.8 | 6.5 | 4.3 | 0.6 | 0.8 | 2.0 | 1.6 | 3.4 | 1.5 | 2.7 | 6.82 | 6.16 | 4.31 | 6.97 | 5.45 | 6.88 | 6.1 | 6.84 | 5.49
2 | CC[C@@]1(O)C(=O)OCc2c1cc1n(c2=O)Cc2c-1nc1ccccc1c2CCN(C(=O)OCc1ccc(NC(=O)[C@H](C)NC(=O)[C@@H](NC(=O)CCOCCOCCOCCOCCNC(=O)CCC(=O)Nc2ccc3c(c2)cc(CN(C)NC)n3CCC(=O)NCCOCCOCCOCCOCCC(=O)N[C@H](C(=O)N[C@@H](C)C(=O)Nc2ccc(COC(=O)N(CCc3c4c(nc5ccccc35)-c3cc5c(c(=O)n3C4)COC(=O)[C@]5(O)CC)C(C)C)cc2O[C@@H]2O[C@H](C(=O)O)[C@@H](O)[C@H](O)[C@H]2O)C(C)C)C(C)C)c(O[C@@H]2O[C@H](C(=O)O)[C@@H](O)[C@H](O)[C@H]2O)c1)C(C)C [Compound 36] |  | 4.1 | 6.1 |  | 3.3 |  |  | 3.5 | 2.2 | 6.2 |  | 6.78 | 6.33 |  | 6.88 |  | 6.55 | 6.32 | 6.33

— US20240148883A1, “Branched Linkers for Antibody-Drug Conjugates and Methods of Use Thereof” (priority 2021, published 2024)
